# Measured values as given in patent US20190185581A1 (University of California, published 2019).
# Changes are numbered by the printed parent chain. Names may count otherwise.
# B1: Fab 32D1 (Fab, V domains shown)
# VH: EVQLVESGGGLVQPGGSLRLSCAASGFNLYYSYMHWVRQAPGKGLEWVASISPYSGYTYYADSVKGRFTISADTSKNTAYLQMNSLRAEDTAVYYCARMSLHRNFNQQGRSRLLGRMPRTYGMDYWGQGTLVTVSS
# VL: DIQMTQSPSSLSASVGDRVTITCRASQSVSSAVAWYQQKPGKAPKLLIYSASSLYSGVPSRFSGSRSGTDFTLTISSLQPEDFATYYCQQYYSLITFGQGTKVEIKR
# notes: not shown: His tag at the C-terminus of the heavy chain
# B2: Fab 33C4 (Fab, V domains shown)
# VH: EVQLVESGGGLVQPGGSLRLSCAASGFNLYSSSMHWVRQAPGKGLEWVASIYPYYGYTYYADSVKGRFTISADTSKNTAYLQMNSLRAEDTAVYYCARPTTSRVNKKLFRVSVLHPGSYGMDYWGQGTLVTVSS
# VL: B1 VL with Y91A, Y92S, S93Y
# notes: also called R2C3; not shown: His tag at the C-terminus of the heavy chain
# B3: Fab 3E9 (Fab, V domains shown)
# VH: EVQLVESGGGLVQPGGSLRLSCAASGFNLYYSSMHWVRQAPGKGLEWVASIYPSYGSTYYADSVKGRFTISADTSKNTAYLQMNSLRAEDTAVYYCARNGRYPGFLKRAHKRLLNFKAYVMDYWGQGTLVTVSS
# VL: DIQMTQSPSSLSASVGDRVTITCRASQSVSSAVAWYQQKPGKAPKLLIYSASSLYSGVPSRFSGSRSGTDFTLTISSLQPEDFATYYCQQGSWYLITFGQGTKVEIKR
# notes: as for B1
# B4: Fab 32C2 (Fab, V domains shown)
# VH: EVQLVESGGGLVQPGGSLRLSCAASGFNLYYYSMHWVRQAPGKGLEWVAYISPYSSSTYYADSVKGRFTISADTSKNTAYLQMNSLRAEDTAVYYCARSQHAKKSTIIRMLEHQSRSGMQYVMDYWGQGTLVTVSS
# VL: B3 VL with G91S, W93Y, Y94S
# notes: as for B1
# B5: Fab 3E2 (Fab, V domains shown)
# VH: EVQLVESGGGLVQPGGSLRLSCAASGFNIYYYSIHWVRQAPGKGLEWVASIYPYSSYTYYADSVKGRFTISADTSKNTAYLQMNSLRAEDTAVYYCARGIKGLVFTGSQMKMLRRGNYNWYVMDYWGQGTLVTVSS
# VL: B3 VL with G91S, W93Y, Y94S
# notes: as for B1
# B6: Fab 3D9 (Fab, V domains shown)
# VH: EVQLVESGGGLVQPGGSLRLSCAASGFNIYSSSIHWVRQAPGKGLEWVASIYSSYGYTYYADSVKGRFTISADTSKNTAYLQMNSLRAEDTAVYYCARRLMAYHGSCSSRLCQTAISPQRYAMDYWGQGTLVTVSS
# VL: B3 VL with G91S, W93Y, Y94S
# notes: as for B1
# B7: Fab 2B5 (Fab, V domains shown)
# VH: EVQLVESGGGLVQPGGSLRLSCAASGFNLSYSSMHWVRQAPGKGLEWVASIYPYSGYTYYADSVKGRFTISADTSKNTAYLQMNSLRAEDTAVYYCARIGVNAWAVKMSQRMLATRGSGWYVMDYWGQGTLVTVSS
# VL: DIQMTQSPSSLSASVGDRVTITCRASQSVSSAVAWYQQKPGKAPKLLIYSASSLYSGVPSRFSGSRSGTDFTLTISSLQPEDFATYYCQQSSSYPYSPITFGQGTKVEIKR
# notes: as for B1
# B8: Fab 3F3 (Fab, V domains shown)
# VH: EVQLVESGGGLVQPGGSLRLSCAASGFNIYSSSMHWVRQAPGKGLEWVAYIYPYSGYTYYADSVKGRFTISADTSKNTAYLQMNSLRAEDTAVYYCARLYNGWLMVEGIGSAREGPTWYAMDYWGQGTLVTVSS
# VL: B7 VL with S91G, S92G, S93V, P95A, Y96A, S97H, I99F
# notes: also called R2C13; not shown: His tag at the C-terminus of the heavy chain
# B9: Fab 33D4 (Fab, V domains shown)
# VH: EVQLVESGGGLVQPGGSLRLSCAASGFNIYYSSMHWVRQAPGKGLEWVASISPYSGSTYYADSVKGRFTISADTSKNTAYLQMNSLRAEDTAVYYCARSVHMKLSNKILSGWSWNNSFYAMDYWGQGTLVTVSS
# VL: B3 VL with G91S, W93Y, Y94S
# notes: also called R2C15; not shown: His tag at the C-terminus of the heavy chain
# B10: Fab 3G9 (Fab, V domains shown)
# VH: EVQLVESGGGLVQPGGSLRLSCAASGFNIYYSSIHWVRQAPGKGLEWVASIYSYSGYTYYADSVKGRFTISADTSKNTAYLQMNSLRAEDTAVYYCARATNEKFRRKSLQVRLLMRSWLAYAMDYWGQGTLVTVSS
# VL: B7 VL with S91A, S93Y, Y94A, P95A, Y96S, S97A, P98L
# notes: as for B1
# B11: MMP-14 catalytic domain mutant F198A (enzyme)
# chain: not shown
# B12: MMP-14 catalytic domain mutant F204A (enzyme)
# chain: not shown
# B13: MMP-14 catalytic domain mutant N231A (enzyme)
# chain: not shown
# B14: MMP-14 catalytic domain mutant T190A (enzyme)
# chain: not shown
# B15: MMP-14 catalytic domain mutant Y203A (enzyme)
# chain: not shown
# B16: Fab 32E10 (Fab, V domains shown)
# VH: EVQLVESGGGLVQPGGSLRLSCAASGFNIYSYSMHWVRQAPGKGLEWVAYIYPYSGYTYYADSVKGRFTISADTSKNTAYLQMNSLRAEDTAVYYCARLDRDRYIHVGRAGNTYSNYYYVMDYWGQGTLVTVSS
# VL: DIQMTQSPSSLSASVGDRVTITCRASQSVSSAVAWYQQKPGKAPKLLIYSASSLYSGVPSRFSGSRSGTDFTLTISSLQPEDFATYYCQQPWGAASLITFGQGTKVEIKR
# notes: also called R2C19; not shown: His tag at the C-terminus of the heavy chain
# B17: Fab 32C11 (Fab, V domains shown)
# VH: EVQLVESGGGLVQPGGSLRLSCAASGFNLYYSSIHWVRQAPGKGLEWVASISSYSSYTYYADSVKGRFTISADTSKNTAYLQMNSLRAEDTAVYYCAREIHMLSRQARYLRDGRRPRGSMYVMDYWGQGTLVTVSS
# VL: B3 VL with G91Y, S92G, W93A, Y94G
# notes: also called R3C7; not shown: His tag at the C-terminus of the heavy chain
# B18: Fab 3B2 (Fab, V domains shown)
# VH: EVQLVESGGGLVQPGGSLRLSCAASGFNFSSSSIHWVRQAPGKGLEWVASIYSSYSSTYYADSVKGRFTISADTSKNTAYLQMNSLRAEDTAVYYCARSTAATTLSRMSRSYWTIQLPYGMDYWGQGTLVTVSS
# VL: B3 VL with G91S, W93Y, Y94S
# notes: also called R2C1; not shown: His tag at the C-terminus of the heavy chain
# B19: Fab 33F5 (Fab, V domains shown)
# VH: EVQLVESGGGLVQPGGSLRLSCAASGFNLYYSYMHWVRQAPGKGLEWVAYISPSSSSTYYADSVKGRFTISADTSKNTAYLQMNSLRAEDTAVYYCARNFRVESAGRPGKTVLRKDGKYAMDYWGQGTLVTVSS
# VL: B3 VL with G91S, W93V, Y94G, I96F
# notes: also called R2C20; not shown: His tag at the C-terminus of the heavy chain
# How the values were obtained:
# [1] = target: T1, catalytic domain of MMP-14 (cdMMP-14) (human, UniProt P50281 114-287, limits assumed, biotinylated (Sulfo-NHS-LC-Biotin) where immobilised via streptavidin); assay: ELISA, Fab titrated on immobilised MMP-14 catalytic domain, anti-Fab-HRP
# T1 construct: also called matrix metalloproteinase-14 catalytic domain; wild-type MMP-14
# Experimental: Bound Fabs were detected using the anti-Fab-HRP conjugate. The half-maximal effective concentration (EC₅₀) was calculated from a four-parametric logistic curve-fitting analysis.
# [2] = target: T1, catalytic domain of MMP-14 (cdMMP-14); assay: cell-based or functional assay
# [3] = target: T1, catalytic domain of MMP-14 (cdMMP-14); assay: ELISA, Fab titrated on immobilised biotin-cdMMP-14, anti-Fab-HRP
# [4] = target: T1, catalytic domain of MMP-14 (cdMMP-14); assay: cell-based or functional assay; remark: listed apart in the source
# [5] = target: catalytic domain of MMP-2 (human, UniProt P08253 115-449, limits assumed, biotinylated (Sulfo-NHS-LC-Biotin)); assay: ELISA, purified Fab at 50, 100, 250 and 500 nM on immobilised MMP catalytic domain, anti-Fab-HRP, OD450
# [6] = target: T2, catalytic domain of MMP-9 (cdMMP-9) (human, UniProt P14780 107-443, limits assumed); assay: as above
# T2 sequence: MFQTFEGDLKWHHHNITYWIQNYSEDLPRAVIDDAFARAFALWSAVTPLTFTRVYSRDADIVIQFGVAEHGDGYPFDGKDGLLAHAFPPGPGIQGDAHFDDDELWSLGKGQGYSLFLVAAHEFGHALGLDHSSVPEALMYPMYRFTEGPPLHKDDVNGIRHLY
# [7] = target: T1, catalytic domain of MMP-14 (cdMMP-14); assay: cell-based or functional assay; remark: listed apart in the source
# [8] = target: T3, Fab 3A2; assay: competitive ELISA: 10 nM Fab 3A2 pre-incubated with soluble MMP-14 (WT or mutant), then captured on immobilised wild-type MMP-14; anti-Fab-HRP
# T3 construct: also called R3C9; not shown: His tag at the C-terminus of the heavy chain
# Sequence of catalytic domain of MMP-2 (P08253 other isoform, or with tags, fused parts or gaps limits assumed): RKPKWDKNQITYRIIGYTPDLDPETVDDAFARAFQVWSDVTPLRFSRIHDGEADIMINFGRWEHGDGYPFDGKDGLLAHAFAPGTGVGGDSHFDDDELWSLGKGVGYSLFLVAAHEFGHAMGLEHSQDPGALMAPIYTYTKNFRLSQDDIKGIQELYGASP
Binder,EC50 [1] [nM],IC50 by FRET Assay [2] [nM],EC50 [3] [nM],also measured
B1,350,4200,,
B2,220,4600,220,Inhibition potency (FRET IC50) [4]: 4600 nM
B3,51,6000,,
B4,150,8000,,
B5,47,42,,binding result [5]: no binding (tested: 500 nM); binding result [6]: no binding (tested: 500 nM)
B6,6.4,61,,binding result [5]: no binding (tested: 500 nM); binding result [6]: no binding (tested: 500 nM); IC50 of inhibition at neutral pH 7.5 [7]: 65 nM; IC50 of inhibition at pH 6.5 [7]: 10.5 nM; IC50 of inhibition at pH 8.5 [7]: 157 nM
B7,24,240,,binding result [5]: no binding (tested: 500 nM); binding result [6]: no binding (tested: 500 nM)
B8,34,970,34,Inhibition potency (FRET IC50) [4]: 970 nM
B9,460,3900,460,Inhibition potency (FRET IC50) [4]: 3900 nM
B10,160,390,,
B11,,,,IC50 (read off the curve) [8]: ~100 nM
B12,,,,binding result [8]: binds
B13,,,,binding result [8]: binds
B14,,,,IC50 (read off the curve) [8]: ~100 nM
B15,,,,IC50 (read off the curve) [8]: ~100 nM
B16,9.7,,9.7,
B17,29,,29,
B18,590,,590,
B19,1600,,1600,
